Test results published in US20090215683A1 (ONCOTHERAPY SCIENCE, published 2009).
Each block holds one binder with its values, some of them ahead of it.

Experiments:
[1] = biological target: T1, kinetocore associated 2 (KNTC2), endogenous protein of LC319 lung-cancer cells (human, UniProt O14777 1-642); experiment: anti-Flag immunoprecipitation from transfected LC319 cells, immunoblot for KNTC2 (FIG. 2C)
T1 construct: Endogenous protein in lysates of the human lung-cancer cell line LC319; Seen as a 75-kDa band and identified by MALDI-TOF mass spectrometry; also called endogenous KNTC2
T1 sequence: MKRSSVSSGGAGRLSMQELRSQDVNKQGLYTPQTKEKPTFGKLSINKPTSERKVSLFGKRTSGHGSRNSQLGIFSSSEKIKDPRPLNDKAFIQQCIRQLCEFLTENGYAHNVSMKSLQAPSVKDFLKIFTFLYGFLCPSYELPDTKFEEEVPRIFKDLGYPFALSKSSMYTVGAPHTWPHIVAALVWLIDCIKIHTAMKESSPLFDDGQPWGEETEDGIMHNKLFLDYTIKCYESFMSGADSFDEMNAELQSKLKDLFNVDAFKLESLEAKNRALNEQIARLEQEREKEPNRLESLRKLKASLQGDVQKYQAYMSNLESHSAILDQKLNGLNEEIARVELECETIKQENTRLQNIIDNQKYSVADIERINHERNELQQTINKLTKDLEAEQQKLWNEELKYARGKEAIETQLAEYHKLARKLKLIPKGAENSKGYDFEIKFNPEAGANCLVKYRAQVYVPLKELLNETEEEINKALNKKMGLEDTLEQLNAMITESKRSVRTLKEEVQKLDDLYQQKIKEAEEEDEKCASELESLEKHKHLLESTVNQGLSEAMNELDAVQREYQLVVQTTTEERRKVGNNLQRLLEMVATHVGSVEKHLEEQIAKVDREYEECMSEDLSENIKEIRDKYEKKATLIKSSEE
Procedure: (§1) Cell extracts from lung-cancer cell line LC319, transfected with plasmids expressing eleven deletion-constructs of CDCA1 were pre-cleared by incubation at 4° C. for 1 hour with 100 μl of protein G-agarose beads in final volumes of 2 ml of immunoprecipitation buffer (0.5% NP-40, 50 mM Tris-HCl, 150 mM NaCl) in the presence of proteinase inhibitor. After centrifugation at 1,000 rpm for 5 min at 4° C., the supernatants were incubated at 4° C. with anti-FLAG M2 agarose for 2 hours. After the beads were collected from each sample by centrifugation at 5,000 rpm for 2 min and washed six times with 1 ml of immunoprecipitation buffer, the washed beads were re-suspended in 50 μl of Laemmli sample buffer and boiled for 5 min before the proteins were separated on 10% SDS PAGE gels. Immunoblot was performed using KNTC2 polyclonal antibody (Abcom, Inc.) and anti-FLAG M2 monoclonal antibody respectively (Sigma-Aldrich Co.).

[2] = biological target: T1, kinetocore associated 2 (KNTC2), …; experiment: anti-Flag immunoprecipitation from transfected LC319 cells, immunoblot for KNTC2 (FIG. 2D)
Procedure: as §1

[3] = biological target: T1, kinetocore associated 2 (KNTC2), …; experiment: immunoprecipitation with KNTC2 polyclonal antibody from LC319 cells transfected with pCAGGSn3Fc-CDCA1, anti-FLAG M2 immunoblot
Procedure: (f) Identification of CDCA1-associated Proteins: Cell extracts from lung-cancer cell line LC319 were pre-cleared by incubation at 4° C. for 1 hour with 50 μl of protein A and G-agarose beads, in final volumes of 2 ml of immunoprecipitation buffer (0.5% NP-40, 50 mM Tris-HCl, 150 mM NaCl) in the presence of proteinase inhibitor. After centrifugation at 1,000 rpm for 5 min at 4° C., the supernatants were incubated at 4° C. with anti-CDCA1 polyclonal antibody, anti-KNTC2 polyclonal antibody, or normal rabbit IgG for 2 hours. After incubation at 4° C. for 1 hour with 50 μl of protein A and G-agarose beads, the beads were collected from each sample by centrifugation at 5,000 rpm for 2 min and washed six times with 1 ml of immunoprecipitation buffer, and the washed beads were re-suspended in 50 μl of Laemmli sample buffer and boiled for 5 min before the proteins were separated on 5-10% SDS PAGE gels (BIO RAD). After electrophoresis, the gels were stained with silver. […] The nucleotide sequence of each cDNA clone was determined with an ABI Prism 3700 DNA sequencer (Applied Biosystems, Foster City, Calif.), using T3, T7, or synthetic oligonucleotide primers according to the manufacturer's instructions. […]

[4] = biological target: T1, kinetocore associated 2 (KNTC2), …; experiment: anti-Flag immunoprecipitation (FIG. 2C); also immunoprecipitation with anti-KNTC2 polyclonal antibody (FIG. 5A)
Procedure: as §1

binding result [1]: no binding
B1: CDCA1 1-148 deletion construct with C-terminal FLAG sequence (other)
chain: METLSFPRYNVAEIVIHIRNKILTGADGKNLTKNDLYPNPKPEVLHMIYMRALQIVYGIRLEHFYMMPVNSEVMYPHLMEGFLPFSNLVTHLDSFLPICRVNDFETADILCPKAKRTSRFLSGIINFIHFREACRETYMEFLWQYKSS
notes: Expressed by transfection in LC319 cells; not shown: C-terminal FLAG tag of the pCAGGS vector

binding result [2]: no binding
B2: CDCA1 277-367 deletion construct with C-terminal FLAG sequence (other)
chain: EIYGDSVDCLPSCQLEVQLYQKKIQDLSDNREKLASILKESLNLEDQIESDESELKKLKTEENSFKRLMIVKKEKLATAQFKINKKHEDVK
notes: as for B1

binding result [3]: binds
B3: CDCA1 1-464 (full length), exogenous, expressed from pCAGGSn3Fc-CDCA1 in LC319 cells (other, not shown: small tags and cut ends)
chain: METLSFPRYNVAEIVIHIRNKILTGADGKNLTKNDLYPNPKPEVLHMIYMRALQIVYGIRLEHFYMMPVNSEVMYPHLMEGFLPFSNLVTHLDSFLPICRVNDFETADILCPKAKRTSRFLSGIINFIHFREACRETYMEFLWQYKSSADKMQQLNAAHQEALMKLERLDSVPVEEQEEFKQLSDGIQELQQSLNQDFHQKTIVLQEGNSQKKSNISEKTKRLNELKLLVVSLKEIQESLKTKIVDSPEKLKNYKEKMKDTVQKLKNARQEVVEKYEIYGDSVDCLPSCQLEVQLYQKKIQDLSDNREKLASILKESLNLEDQIESDESELKKLKTEENSFKRLMIVKKEKLATAQFKINKKHEDVKQYKRTVIEDCNKVQEKRGAVYERVTTINQEIQKIKLGIQQLKDAAEREKLKSQEIFLNLKTALEKYHDGIEKAAEDSYAKIDEKTAELKRKMFKMST
notes: It is treated as the same molecule here; also called exogenous CDCA1

binding result [1]: no binding
B4: CDCA1 149-306 deletion construct with C-terminal FLAG sequence (other)
chain: ADKMQQLNAAHQEALMKLERLDSVPVEEQEEFKQLSDGIQELQQSLNQDFHQKTIVLQEGNSQKKSNISEKTKRLNELKLLVVSLKEIQESLKTKIVDSPEKLKNYKEKMKDTVQKLKNARQEVVEKYEIYGDSVDCLPSCQLEVQLYQKKIQDLSDN
notes: Expressed by transfection in LC319 cells; also called control; not shown: C-terminal FLAG tag of the pCAGGS vector

binding result [2]: no binding
B5: CDCA1 319-367 deletion construct with C-terminal FLAG sequence (other)
chain: NLEDQIESDESELKKLKTEENSFKRLMIVKKEKLATAQFKINKKHEDVK
notes: as for B1

binding result [4]: binds
B6: CDCA1 200-464 deletion construct with C-terminal FLAG sequence (other)
chain: QKTIVLQEGNSQKKSNISEKTKRLNELKLLVVSLKEIQESLKTKIVDSPEKLKNYKEKMKDTVQKLKNARQEVVEKYEIYGDSVDCLPSCQLEVQLYQKKIQDLSDNREKLASILKESLNLEDQIESDESELKKLKTEENSFKRLMIVKKEKLATAQFKINKKHEDVKQYKRTVIEDCNKVQEKRGAVYERVTTINQEIQKIKLGIQQLKDAAEREKLKSQEIFLNLKTALEKYHDGIEKAAEDSYAKIDEKTAELKRKMFKMST
notes: Expressed by transfection in LC319 cells; also called dominant-negative fragment of CDCA1; not shown: C-terminal FLAG tag of the pCAGGS vector
